Target: T1, hCD226-His tagged protein transiently expressed on CHO cells (human, UniProt Q15762 19-336)
T1 construct: whole, on cells; also called DNAM-1
T1 sequence (looked up): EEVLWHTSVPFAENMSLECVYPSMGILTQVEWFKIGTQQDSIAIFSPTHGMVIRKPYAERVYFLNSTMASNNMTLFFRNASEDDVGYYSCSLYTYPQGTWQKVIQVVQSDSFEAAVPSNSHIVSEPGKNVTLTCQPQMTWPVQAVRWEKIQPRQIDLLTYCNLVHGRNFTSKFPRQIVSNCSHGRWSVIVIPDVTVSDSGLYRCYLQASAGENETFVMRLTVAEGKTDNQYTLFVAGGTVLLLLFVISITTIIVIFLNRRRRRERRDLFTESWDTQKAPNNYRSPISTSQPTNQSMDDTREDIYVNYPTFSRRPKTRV
Experiment: FRET by flow cytometry on transfected CHO cells

binding result: binds
B1: hTIGIT-Myc tagged protein transiently expressed on CHO cells (receptor, human, UniProt Q495A1 22-244, looked up)
chain: MMTGTIETTGNISAEKGGSIILQCHLSSTTAQVTQVNWEQQDQLLAICNADLGWHISPSFKDRVAPGPGLGLTLQSLTVNDTGEYFCIYHTYPDGTYTGRIFLEVLESSVAEHGARFQIPLLGAMAATLVVICTAVIVVVALTRKKKALRIHSVEGDLRRKSAGQEEWSPSAPSPPGSCVQAEAAPAGLCGEQRGEDCAELHDYFNVLSYRSLGNCSFFTETG
notes: whole, on cells

— patent US20230192845A1 (BLINK BIOMEDICAL, published 2023)
